Read-outs that look alike come from different tables or passages of the source.
Key:
[1] = molecular target: T1, SARS-CoV-2 Spike protein (SARS-CoV-2, UniProt P0DTC2 16-1211); assay: SPR/BLI, method not told apart
[2] = molecular target: T2, 229E Spike protein (HCoV-229E, UniProt P15423 16-1115); assay: ELISA titration of 1249A8 on coated Spike proteins, mean Abs at 450 nm
T2 sequence: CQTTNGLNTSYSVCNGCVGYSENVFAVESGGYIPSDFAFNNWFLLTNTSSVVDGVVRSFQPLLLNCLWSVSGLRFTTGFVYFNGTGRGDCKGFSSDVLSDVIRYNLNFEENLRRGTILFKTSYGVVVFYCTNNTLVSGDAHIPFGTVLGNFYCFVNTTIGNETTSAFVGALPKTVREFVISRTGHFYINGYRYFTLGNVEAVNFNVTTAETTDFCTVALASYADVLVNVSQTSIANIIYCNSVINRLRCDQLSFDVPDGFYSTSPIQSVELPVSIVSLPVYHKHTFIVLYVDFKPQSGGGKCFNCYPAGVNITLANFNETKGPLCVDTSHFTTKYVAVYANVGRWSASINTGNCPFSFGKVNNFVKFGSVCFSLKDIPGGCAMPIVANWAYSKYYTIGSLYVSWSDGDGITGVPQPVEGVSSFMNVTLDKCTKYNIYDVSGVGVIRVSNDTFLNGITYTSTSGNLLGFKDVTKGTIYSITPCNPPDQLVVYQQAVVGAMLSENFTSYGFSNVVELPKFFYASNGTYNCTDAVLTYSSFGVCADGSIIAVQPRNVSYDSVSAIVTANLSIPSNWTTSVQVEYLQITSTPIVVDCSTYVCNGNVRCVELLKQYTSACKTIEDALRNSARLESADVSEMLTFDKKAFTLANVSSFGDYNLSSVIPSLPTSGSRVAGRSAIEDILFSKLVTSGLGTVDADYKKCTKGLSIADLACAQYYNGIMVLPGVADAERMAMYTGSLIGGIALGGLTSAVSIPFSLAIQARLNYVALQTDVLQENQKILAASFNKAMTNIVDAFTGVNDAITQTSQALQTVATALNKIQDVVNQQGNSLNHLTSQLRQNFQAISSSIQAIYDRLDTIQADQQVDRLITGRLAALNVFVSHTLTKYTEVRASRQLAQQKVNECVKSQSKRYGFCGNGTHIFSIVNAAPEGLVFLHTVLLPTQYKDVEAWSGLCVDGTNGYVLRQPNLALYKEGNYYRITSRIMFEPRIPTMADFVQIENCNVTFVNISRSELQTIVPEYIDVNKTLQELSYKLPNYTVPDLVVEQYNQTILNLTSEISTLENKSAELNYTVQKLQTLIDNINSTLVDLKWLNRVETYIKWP

[3] = molecular target: T3, NL63 Spike protein (HCoV-NL63, UniProt Q6Q1S2 19-1296); assay: as above
T3 sequence: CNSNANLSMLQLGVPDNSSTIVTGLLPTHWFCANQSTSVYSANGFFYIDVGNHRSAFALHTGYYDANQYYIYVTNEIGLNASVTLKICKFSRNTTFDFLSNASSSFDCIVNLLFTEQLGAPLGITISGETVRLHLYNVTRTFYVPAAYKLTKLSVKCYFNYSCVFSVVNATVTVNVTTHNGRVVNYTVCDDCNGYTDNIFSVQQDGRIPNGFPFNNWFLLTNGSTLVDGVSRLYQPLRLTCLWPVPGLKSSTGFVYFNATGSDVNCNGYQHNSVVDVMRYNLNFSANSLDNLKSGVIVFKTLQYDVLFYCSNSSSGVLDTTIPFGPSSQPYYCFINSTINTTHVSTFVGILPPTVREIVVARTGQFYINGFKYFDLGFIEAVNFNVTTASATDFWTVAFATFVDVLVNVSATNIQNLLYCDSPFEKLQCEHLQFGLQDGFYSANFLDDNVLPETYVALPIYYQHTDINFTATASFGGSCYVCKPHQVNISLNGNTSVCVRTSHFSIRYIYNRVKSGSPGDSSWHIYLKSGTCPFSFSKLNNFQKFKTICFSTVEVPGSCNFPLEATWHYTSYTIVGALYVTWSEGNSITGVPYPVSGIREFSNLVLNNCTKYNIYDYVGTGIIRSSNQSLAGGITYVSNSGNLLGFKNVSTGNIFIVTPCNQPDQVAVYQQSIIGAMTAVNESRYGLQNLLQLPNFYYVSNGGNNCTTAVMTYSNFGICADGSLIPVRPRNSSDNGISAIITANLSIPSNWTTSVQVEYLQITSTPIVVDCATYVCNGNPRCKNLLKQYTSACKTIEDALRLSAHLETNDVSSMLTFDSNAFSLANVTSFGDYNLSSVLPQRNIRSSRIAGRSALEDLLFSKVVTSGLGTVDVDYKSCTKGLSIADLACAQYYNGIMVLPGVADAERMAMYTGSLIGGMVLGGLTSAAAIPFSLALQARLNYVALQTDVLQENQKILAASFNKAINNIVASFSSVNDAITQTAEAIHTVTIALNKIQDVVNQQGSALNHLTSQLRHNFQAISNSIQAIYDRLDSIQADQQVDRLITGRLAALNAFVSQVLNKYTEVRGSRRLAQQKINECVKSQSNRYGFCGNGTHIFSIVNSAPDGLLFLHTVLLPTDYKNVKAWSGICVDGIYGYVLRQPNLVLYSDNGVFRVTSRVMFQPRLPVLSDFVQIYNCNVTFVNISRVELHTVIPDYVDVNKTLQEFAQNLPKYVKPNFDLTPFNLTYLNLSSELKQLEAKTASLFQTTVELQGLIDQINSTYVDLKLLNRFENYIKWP

[4] = molecular target: T4, SARS-CoV-2 Omicron Spike protein (SARS-CoV-2 Omicron, UniProt P0DTC2 16-1213); assay: BLI, mAb on anti-human Fc biosensors
[5] = molecular target: T1, SARS-CoV-2 Spike protein; assay: BLI, mAb on anti-human Fc biosensor, SARS-CoV-2 Spike in solution
[6] = molecular target: T1, SARS-CoV-2 Spike protein
[7] = molecular target: T4, SARS-CoV-2 Omicron Spike protein
[8] = molecular target: SARS-CoV-2 Spike protein (SARS-CoV-2, UniProt P0DTC2 16-1211); assay: SPR, hmAb captured, SARS-CoV-2 Spike injected, 1:1 fit

B1: 1249A8 (antibody, V domains shown)
VH: QVQLVQSGAEVKKPGASMKVSCKASGFTFTDYYMHWVRQAPRQGLEWMGLINPSGSGTAYAQNFQGRVTLARDTSTSTLYMEMGSLTSDDTAVYYCARMDSSGSYDHWGQGTLVTVSS
VL: ETTLTQSPGTLSLSPGDRATLSCRASQTIRISYLAWYQQKPGQAPRLLVYGPSIRATGIPDRFSARGSGTDFTLTISRLEPEDFAVYYCQHYGSSPPRYTFGQGTKLEIK
For B1, the Kd [1] was 1.8 nM, the binding result [2] was “no binding (tested: about 1000 ng/ml)” and the binding result [3] was “no binding (tested: about 1000 ng/ml)”. It also gave a Kd [4] of 0.52 nM, a Kd [5] of 2.85 nM and a Kd [6] of 1.22 nM. For the same binder, the Kd [7] was 0.517 nM.

B2: S2P6 (antibody, V domains shown)
VH: EVQLVQSGAEVKKPGASVKVSCKASGYTFTSQYMHWVRQAPGQGLEWIGIINPSGVHTSYAQKFQGRVTLTRDTSTSTLYMELSSLRSEDTAVYYCARGSPKGAFDYWGQGTLVTVSS
VL: not shown
Binder B2 has a Kd [8] of 9.7 nM.

B3: CV3-25 (antibody, V domains shown)
VH: QVQLVESGAEVKKPGESLKISCKGSGYTFTRYWIGWVRQMPGKGLEWMGIIYPGDSDTRYSPSFQGHVTISADKSISTAYLQWNSLKASDTAMYYCARLPQYCSNGVCQRWFDPWGQGTLVTVSS
VL: EIVLTQSPSSVSASVGDRVTITCRASQGISSWLAWYQQKPGKAPKLLIYAASSLQSGVPSRFSGSGSGTDFTLTISSLQPEDFATYYCQQGNSFPYTFGQGTNLEIK
Binder B3 has a Kd [8] of 2.5 nM.

B4: CC40.8 (antibody, V domains shown)
VH: EVQLLESGGGLVQPGGSLRLSCAASGFTFSSYVMTWARQAPGKGLEWVSAISGTGYTYYADSVKGRFTVSRDNSKNTLFLQMSSLRAEDTAVYYCAITMAPVVWGQGTTVTVSS
VL: SYELTQPPSVSVSPGQTARITCSGDALPKRYAYWYQQKSGQAPILVIYEDKKRPSGIPERLSGSKSGTVATLTISGAQVEDEADYYCYSTDSSGNHAVFGGGTQLTVL
Work on B4 yielded a Kd [8] of 1.6 nM.

— patent publication US20240270828A1 (UAB RESEARCH FOUNDATION, published 2024)
